Reference: patent US6635429B1, “Heterodimeric nuclear receptors proteins, genes encoding same, and usage thereof” (Institut National de la Sante et de la Recherche Medicale, priority 1992, dated 2003)

Molecular target: T1, hRAR-γ binding to β-RARE (Homo sapiens, UniProt P13631)
T1 construct: fused to the amino terminal amino acid of full length hRAR-γ; 14 amino acids from the parental vector pEt3a (bacterially expressed preparation only) (N); made in house; host or cells: E. coli BL21 (DE3) plysS; also rVV-infected HeLa cells, rBV-infected Sf9 cells, yeast (ubiquitin fusion) and rabbit reticulocyte lysate
T1 sequence (P13631 1-454): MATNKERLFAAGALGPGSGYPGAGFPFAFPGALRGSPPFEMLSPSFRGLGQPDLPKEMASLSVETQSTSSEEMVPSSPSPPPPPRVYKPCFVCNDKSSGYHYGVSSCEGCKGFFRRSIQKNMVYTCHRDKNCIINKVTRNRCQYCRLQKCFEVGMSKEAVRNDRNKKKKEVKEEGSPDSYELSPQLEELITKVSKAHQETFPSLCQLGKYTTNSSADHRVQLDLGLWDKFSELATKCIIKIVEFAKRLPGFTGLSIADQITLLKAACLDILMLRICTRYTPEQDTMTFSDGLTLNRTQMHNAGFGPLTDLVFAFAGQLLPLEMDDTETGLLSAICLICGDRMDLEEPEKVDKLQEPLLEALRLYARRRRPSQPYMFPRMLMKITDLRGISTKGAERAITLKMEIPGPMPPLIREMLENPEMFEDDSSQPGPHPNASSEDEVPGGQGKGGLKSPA
T1 sequence (P28702 1-533 partner): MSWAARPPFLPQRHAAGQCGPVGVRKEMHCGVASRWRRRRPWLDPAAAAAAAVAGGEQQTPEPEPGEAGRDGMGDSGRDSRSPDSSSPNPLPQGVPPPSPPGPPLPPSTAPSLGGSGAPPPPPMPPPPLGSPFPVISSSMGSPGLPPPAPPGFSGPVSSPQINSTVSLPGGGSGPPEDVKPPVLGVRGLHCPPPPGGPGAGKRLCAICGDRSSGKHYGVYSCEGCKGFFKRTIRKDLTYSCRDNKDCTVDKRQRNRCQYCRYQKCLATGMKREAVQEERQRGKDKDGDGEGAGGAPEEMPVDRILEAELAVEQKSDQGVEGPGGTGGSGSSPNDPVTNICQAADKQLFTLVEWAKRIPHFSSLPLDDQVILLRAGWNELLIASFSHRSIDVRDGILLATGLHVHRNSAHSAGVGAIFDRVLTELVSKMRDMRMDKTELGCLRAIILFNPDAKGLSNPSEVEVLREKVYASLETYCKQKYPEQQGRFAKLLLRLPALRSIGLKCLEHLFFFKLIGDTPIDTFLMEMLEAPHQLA
Assay: Gel retardation assay of RAR binding to β-RARE (RBF complementation)
Conditions: RBF activity, complementation gel retardation with bacterially-expressed hRAR-γ
Description: For gel retardation experiments comparing RAR and RXR subtypes and deletion mutants, all proteins were produced by in vitro translation in the presence of [^35S]methionine.
Purification of rVV- and rBV-expressed hRAR-γ is being described elsewhere (Chen et al., manuscript in preparation). […] All steps were carried out at 4° C. and RBF activity was monitored through all purification steps by a complementation gel retardation assay using bacterially-expressed hRAR-γ as described above. […] The column was washed with equilibration buffer until the A280 of the eluent returned to baseline. […] The column was washed with equilibration buffer until the A280 of the eluent returned to baseline and then with 4 column volumes of buffer A containing 0.45 M ammonium sulfate and 50 mM KCl. The column was then eluted with an 18 ml linear gradient from 0.45 to 0 M ammonium sulfate in buffer A containing 50 mM KCl.

B1: HAP-TSK: hydroxylapatite column-purified HeLa cell RBF, apparently homogeneous ~64 kDa polypeptide, predominantly hRXR-β (protein, UniProt P28702 1-533, looked up)
Retinoic acid receptor …: MSWAARPPFLPQRHAAGQCGPVGVRKEMHCGVASRWRRRRPWLDPAAAAAAAVAGGEQQTPEPEPGEAGRDGMGDSGRDSRSPDSSSPNPLPQGVPPPSPPGPPLPPSTAPSLGGSGAPPPPPMPPPPLGSPFPVISSSMGSPGLPPPAPPGFSGPVSSPQINSTVSLPGGGSGPPEDVKPPVLGVRGLHCPPPPGGPGAGKRLCAICGDRSSGKHYGVYSCEGCKGFFKRTIRKDLTYSCRDNKDCTVDKRQRNRCQYCRYQKCLATGMKREAVQEERQRGKDKDGDGEGAGGAPEEMPVDRILEAELAVEQKSDQGVEGPGGTGGSGSSPNDPVTNICQAADKQLFTLVEWAKRIPHFSSLPLDDQVILLRAGWNELLIASFSHRSIDVRDGILLATGLHVHRNSAHSAGVGAIFDRVLTELVSKMRDMRMDKTELGCLRAIILFNPDAKGLSNPSEVEVLREKVYASLETYCKQKYPEQQGRFAKLLLRLPALRSIGLKCLEHLFFFKLIGDTPIDTFLMEMLEAPHQLA
B1 was tested, and the “Specific Activity” value was 7,750,000 cpm/μg.
